The source of these data is US6576607B1, “Methods using CNS neurite outgrowth modulators” (Acorda Therapeutics, priority 1995, dated 2003).

In assay [1] the test system is dopaminergic neurons. The experiment in a line: [3H]dopamine uptake in primary cultures of embryonic ventral mesencephalon. It counts as cell-based, rat. As to conditions: 0.5 μM, 3 days. The procedure: (§1) Cell culture, dopamine uptake and treatment with MPP+have been described (Hartikka et al., 1992). Primary cultures containing dopaminergic neurons were prepared from the ventral mesencephalon of 14-day-old fetal rats and plated in 24 well plates. A culture well usually contained 6×10^5 cells/well, of which 3-5% were dopaminergic. Duplicate cultures were prepared for dopamine uptake or tyrosine hydroxylase staining. Dopamine uptake was measured using tritiated dopamine at concentrations of 50 nM (sp, act. 45 Ci/mmol, New England Nuclear). The survival of dopaminergic neurons in the culture was assayed by counting tyrosine hydroxylase (TH) immunopositive neurons, stained with a monoclonal antibody to TH (Boehringer Mannheim).
(§2) The monoclonal L1 antibodies 327 and 557.B6 (referred to as 557) were added to the culture medium on the day of plating at concentrations of 7.5-120 μg/ml and left for 3 days. In addition to treatment of the culture medium with antibodies, they were also substrate coated prior to plating of the cells, as described (Appel et al., 1993). In experiments with MPP^+ (active metabolite of methyl-phenyl-tetrahydropyridine, MPTP), antibodies or cAMP-elevating agents were added to the culture medium of 5-day-old cultures, followed by 1 μM MPP^+ on day 6 and cells were fixed on day 8 for immunocytochemistry. […]

For assay [2], the system named is dopaminergic neurons. The experiment in a line: Protection of dopaminergic neurons from MPP+ neurotoxicity. As to conditions: forskolin combined with PDE-IV inhibitor NQ-A. It counts as cell-based, rat. The procedure:
as §1, §2

In a further assay the test system is injured rat spinal cord. The experiment in a line: Rat spinal cord contusion injury (NYU impactor), intrathecal infusion. It counts as in vivo. As to conditions: 15 μg/ml intrathecally, 6 rats without CyA; unpublished experiments. The procedure:
The NYU Impactor and rat contusion models of spinal cord injury have been extensively described. [Kwo S, Young W, DeCrescito V (1989) Journal of Neurotrauma 6:13-24; Huang P, Young W (1994). Journal of Neurotrauma 11: 547-62; Basso M, Beattie M, Bresnahan J, Anderson DK, Faden A, et al. (1996) Journal of Neurotrauma in press; Constantini S, Young W (1994) Journal of Neurosurgery 80: 97-111]. Rats were anesthetized with an intraperitoneal dose of pentobarbital (40 mg/kg female, 60 mg/kg male), suspended with clamps placed on the T8 and T11 dorsal processes, and injured at one hour after induction of anesthesia. The impactor drops a 10 g rod a distance of 12.5, 25.0, or 50.0 mm onto the dorsal surface of T9-10 spinal cord, exposed by laminectomy. Two digital optical potentiometers measured the trajectory of the falling rod and vertebral movement with a precision of ±20 μm and ±20 μsec. Cord compression rate (Cr) was calculated from the distance of cord compression divided by time required for compression. […]
The rats received daily Keflin® (15 mg/kg b.i.d. subcutaneous) for one week after injury and then Baytril® (5 mg/kg b.i.d. subcutaneous) for 10 days for recurrent urinary tract infections. […] The rats were assessed weekly for locomotor recovery, using the Basso-Beattie-Bresnahan (BBB) scale developed at Ohio State University. […]

In assay [3] the test system is hippocampal neurons. Description: Neurite outgrowth assay, hippocampal neurons. It is filed as cell-based, rat. Conditions: hippocampal neurons from 18-day embryos. The procedure:
The tissue culture wells and glass cover slips (1.1 cm diameter) were incubated overnight at 4° C. with 0.01% poly-L-lysine (PLL) and washed three times with distilled water. L1-Fc or CHL1-Fc diluted in Ca/Mg-free Hank's Balanced Salt Solution were applied overnight at 4° C., at the concentrations indicated in the text. The wells and coverslips were washed twice with Hank's and once with seeding medium just before plating cells.
(§3) Hippocampal neurons were prepared from 18-day rat embryos as described (Lochter, A., et al (1991); Brewer, G. J., et al (1993)). Neurons were re-suspended and plated in serum-free Dulbecco's modified Eagle's medium/Nutrient Mix F12 (Life Technologies, Inc.) supplemented with N2 components, 33 mM D-glucose, 1 mM pyruvate, 1 mg/ml BSA, and 5 mM Hepes.
Cerebellar granule cells and hippocampal neurons were seeded into pro-treated 96-well tissue culture plates at a density of 1×10^4 cells or 5×10^3 cells per well, respectively, in 100 μl medium. Soluble fusion proteins were added, when used, 2 hours after seeding the cells, to avoid effects on initial adhesion. […] The lengths of individual neurite were analyzed and quantified with an IBAS image analysis system (Kontron). […] For each cell measured, the total length of all neurites was determined. In each experiment, 50 cells in each of three wells were analyzed. […]

The subject of assay [4] is hippocampal neurons. The experiment in a line: Cell survival assay (MTT), embryonic hippocampal neurons. It is filed as cell-based, rat. As to conditions: 5 days in culture. The procedure: as §3
The test system of a further assay is cerebellar granule cells. As to conditions: 5 days in culture.

In the case of `COC(=O)c1cccc(-n2c(=O)n(Cc3ccccc3)c(=O)c3ccccc32)c1` [NQ-A, 1-(3-carbomethoxyphenyl)-3-benzyl-quinazoline-2,4-dione], the dopamine uptake result in the assay with dopaminergic neurons [1] is on record as “slight elevation of dopamine uptake”. Besides, the “protection from MPP+ toxicity” value in the assay on dopaminergic neurons [2] is “effectively protects against MPP^+ toxicity”.

B1: NgCAM: immunogenic chick NgCAM given intrathecally (protein, UniProt Q03696 21-1266, looked up)
Neuronal-glial cell adhesion …: ITIPPEYGAHDFLQPPELTEEPPEQLVVFPSDDIVLKCVATGNPPVQYRWSREDQPFVPEEHGGVSVVPGSGTLVINATLAARLQGRFRCFATNALGTAVSPEANVIAENTPQWPKEKVTPVEVEEGDPVVLPCDPPESAVPPKIYWLNSDIVHIAQDERVSMGQDGNLYFSNAMVGDSHPDYICHAHFLGPRTIIQKEPLDLRVAPSNAVRSRRPRLLLPRDPQTTTIALRGGSVVLECIAEGLPTPWVRWRRLNGPLLPGGVGNFNKTLRLWGVTESDDGEYECVAENGRGTARGTHSVTVEAAPYWVRRPQSGVFGPGETARLDCEVGGKPRPQIQWSINGVPIEAAGAERRWLRGGALVLPELRPNDSAVLQCEARNRHGPLLANAFLHVVELPLRMLTADEQRYEVVENQTVFLHCRTFGAPAPNVEWLTPTLEPALQDDRSFVFTNGSLRVSAVRGGDGGVYTCMAQNAHSNGSLTALLEVRAPTRISAPPRSATAKKGETVTFHCGATFDPAVTPGELRWLRGGQPLPDDPRYSVAAEMTVSNVDYGDEGTIQCRASTPLDSAEAEAQLRVVGRPPSRDLQVMEVDEHRVRLSWTPGDDHNSPIEKFVVEEEEEREDLQRGFGAADVPGQPWTPPLPLSPYGRFPFRVVAVNAYGRGEHHAPSAPIETPPAAPERNPGGVHGEGNETGNLVITWEPLPPQAWNAPWARYRVQWRPLEEPGGGGPSGGFPWAESTVDAPPVVVGGLPPFSPFQIRVQAVNGAGKGPEATPGVGHSGEDLPLVYPENVGVELLNSSTVRVRWTLGGGPKELRGRLRGFRVLYWRLGWVGERSRRQAPPDPPQIPQSPAEDPPPFPPVALTVGGDARGALLGGLRPWSRYQLRVLVFNGRGDGPPSEPIAFETPEGVPGPPEELRVERLDDTALSVVERRTFKRSITGYVLRYQQVEPGSALPGGSVLRDPQCDLRGLNARSRYRLALPSTPRERPALQTVGSTKPEPPSPLWSRFGVGGRGGFHGAAVEFGAAQEDDVEFEVQFMNKSTDEPWRTSGRANSSLRRYRLEGLRPGTAYRVQFVGRNRSGENVAFWESEVQTNGTVVPQPGGGVCTKGWFIGFVSSVVLLLLILLILCFIKRSKGGKYSVKDKEDTQVDSEARPMKDETFGEYRSLESEAEKGSASGSGAGSGVGSPGRGPCAAGSEDSLAGYGGSGDVQFNEDGSFIGQYRGPGAGPGSSGPASPCAGPPLD
As for B1, the “locomotor recovery and corticospinal tract regeneration” value in the assay on injured rat spinal cord is “did not result in locomotor recovery or evidence of regenerating corticospinal tracts”.

B2: CHL1-Fc: extracellular domain of mouse CHL1 fused to the Fc portion of human immunoglobulin IgG1 (protein)
chain: EIPLSVQQVPTIVKQSYVQVAFPFDEYFQIECEAKGNPEPIFSWTKDDKPFDLSDPRIIAANNSGTFKIPNEGHISHFQGKYRCFASNRLGTAVSEEIEFIVPGVPKFPKEKIEPIDVEEGDSIVLPCNPPKGLPPLHIYWMNIELEHIEQDERVYMSQRGDLYFANVEENDSRNDYCCFAAFPKLRTIVQKMPMKLTVNSSNSIKQRKPKLLLPPAQMGSLSAKTVLKGDTLLLECFAEGLPTPHIQWSKPGSELPEGRATIEVHEKTLKIENISYQDRGNYRCTANNLLGKASHDFHVTVEEPPRWKKKPQSAVYSTGSSGILLCEAEGEPQPTIKWRLNGLPIEKHPFPGDFMFPREISFTNLLFNHTGVYQCEASNIHGTILANANIDVIDVIPLIKTKNEENYATVVGYSAFLHCEYFASPKATVVWEVADETHPLEGDRYHTHENGTLEIYRTTEEDAGSYSCWVDNAMGKAVITANLDIRNATKLRVSPKNPRIPKSHVLELYCESQCDSHLKHSLKLSWSKDGEAFEMNGTEDGRIVIDGAYLTISNITAEDQGVYSCSAQTSLDSTSEKTQVTVLGVPDPPETFTCQKDKNRSVRLLREAGDDHNSKSASTIVEFEGNREEPGKWEELTRVQGEETDVVLSLAPYVRYQFRVTAVNEVGRSHASLPSDHHETPPAAPDKNPQNIRVQASQPKEMIIKWEPLKSMEQNGPGLEYKVSWKPQGAPEEWEEEIVTNHTLRVMTPTVYAPYDVKVQAINQLGSSPDPQPVTLYSGEDYPSTAPVIQRVDVMNSTLVKVTWSSIPKETVHGLLRGYQINWWKTKSLLDGRTHPKEVNILRFSGQRNSGMVPSLDPFSEFHLTVLAYNSKGAGPESEPYIFQTPEGVPEQPSFLKVIKVDKDTATLSWGLPKKLNGNLTGYLLQYQIINDTYELGELNEINVTTPSKSSWHLSNLNSTTKYKFYLRACTSRGCGKPISEEGATLGEGSKGIRKITEGVNVTQKIHPVEVLVPGAEHIVHLMTKNWGDNDSIFQDVIETRGREYAGLYDDISTQGW
modifications: left off: a dimerising Fc or GST
notes: extracellular domain of mouse CHL1 fused to the Fc portion of human immunoglobulin IgG1
Take B2: the neurite outgrowth result with hippocampal neurons [3] is reported as “a stimulation was observed”. Besides, in the assay on hippocampal neurons [4], the “concentration of maximal effect on survival” value is 1 µg/mL and the survival result is “enhanced survival”. Further, the “morphological features of cultures” value in the assay on cerebellar granule cells was “denser, generally healthier-looking cultures”.
